Results reported in IntAct's records for PubMed 21115843.

Molecular target: notc1_mouse Notch1 (UniProt Q01705)

Question: “Presenilin-1 (Homo sapiens) (from UniProt P49768) D385A” was tested. Which “effect of a mutation on the interaction” value did it give?
Answer: disrupting interaction
